We go through 1 molecule from patent publication US20140017242A1, “ANTI-BRADYKININ B2 RECEPTOR (BKB2R) MONOCLONAL ANTIBODY” (Diamedica, Inc., priority 2010, published 2014).

In experiment [1] the test system is ZDF fa/fa rats. The experiment is described as follows: 21-day ZDF fa/fa study: fasting blood glucose. It is filed as in vivo, rat. Particulars: for fasting blood glucose level: day 21. The procedure: Animals. Male ZDF fa/fa rats were obtained from CRL (Kingston, N.Y.). Upon arrival, rats were seven weeks of age. The rats were housed individually per cage in a room with a photo cycle of 12 hours of light and 12 hours of dark and an ambient temperature of 70-72° F. and fed on regular rodent diet and water ad libitum. At the age of eleven weeks, rats were divided into six groups (Table 5) of eight rats per group based on fasting blood glucose levels. A sub-group of four rats per group was maintained in parallel to the main groups and was dosed similarly for twenty-one days for a hyperinsulinemic-euglycemic clamp study. […]
An oral glucose tolerance test (OGTT) was performed on Day 0, 7, 14 and 21 for each group of the study. Plasma samples were collected at each time point during OGTT to also measure insulin levels. Body weight, food and water intake were measured twice a week. Blood pressure and heart rates were monitored on Day 0, 7, 14 and 21 using a non-invasive tail cuff method (with five readings per rat taken and then averaged). Fasting serum samples were collected on Day 0, 7, 14 and 21 before OGTT for determination of triglyceride and total cholesterol level. Urine samples were collected on Day 7 and 14 for the determination of glycosuria. Glycated (Glycosylated) hemoglobin (HbA1c) was measured at the end of the study. Assay kits for these studies were as presented in Table 6, and were used according to the suppliers' instructions.
Fasting blood glucose levels were measured on Day 0, 7, 14 and 21.
The mean change in fasting blood glucose (mg/dL), serum cholesterol (mg/dL) and systolic blood pressure (mm Hg) from baseline (Day 0) to Day 21 was compared between the high-dose (5F12G1, 0.2 mg/kg) and negative control (MG2b-57, 0.2 mg/kg) groups using an analysis of covariance to adjust for baseline levels. The mean HbA1c percentage in high-dose (5F12G1, 0.2 mg/kg) rats was compared to the mean HbA1c percentage for negative control (MG2b-57, 0.2 mg/kg) rats using an unequal-variance, independent two-sample t-test. A significance level of a=0.05 was used for all tests, and all analyses were conducted using SAS statistical software (vs. 9.2, Cary, N.C., U.S.A.).

In experiment [2] the test system is BxPC-3. The experiment is described as follows: MTT Cell Proliferation Assay, BxPC-3. It is filed as cell-based, human. The note with it: 120 hours of exposure. From the text: This Example describes characterization of the cytotoxic activity of herein described anti-BKB2R monoclonal antibodies against a panel of cancer cell lines. BxPC-3 is a human adenocarcinoma cell line originally isolated from the pancreas (pancreatic cancer) (ATCC # CRL-1687; Tan et al., Cancer Invest. 4: 15-23, 1986. PubMed: 3754176). MV-4-11 is a human biphenotypic B myelomonocytic leukemia (mixed-lineage leukemia, MLL-AF4) cell line originally isolated from the peripheral blood (ATCC # CRL-959; Lange et al., Blood 70: 192-199, 1987. PubMed: 3496132). Hep G2 is a human hepatocellular carcinoma cell line isolated from the liver (liver cancer) (ATCC # HB-8065; Aden et al., Nature 282: 615-616, 1979. PubMed: 233137). RS4;11 is a human acute lymphoblastic leukemia (mixed-lineage leukemia, MLL-AF4) cell line isolated from the bone marrow (ATTC # CRL-1873) Stong et al., Blood 65: 21-31, 1985. PubMed: 3917311). HT-29 is a human colorectal adenocarcinoma (ATTC # HTB-38) cell line isolated from the colon (colon cancer). Fogh et al., J. Natl. Cancer Inst. 58: 209-214, 1977. PubMed: 833871). NUGC-4 is a human stomach carcinoma isolated from the stomach paragastiric lymph node (JCRB # JCRB0834; Akiyama et al., Jpn. J. Surg., 18: 438-446, 1988). […]
The anti-proliferative activity of test compounds against the indicated cell lines was evaluated in vitro using the ATCC's MTT Cell Proliferation Assay (Catalog No. 30-1010K). After the 120 hour incubation with drug (e.g., anti-BKB2R mAb or cisplatin), cell proliferation was measured by addition of MTT reagent to each well and incubation for an additional 4 hrs. […] Optical absorbance (570 nm) of the test wells was measured and then quantitated relative to control wells that received no drug. Results were expressed as percent inhibition versus compound concentration and graphed, as shown in FIGS. 19-25, for cell lines BxPC-3, MV-4;11, HepG2, RS-4;11, HT-29, NUGC-4, and PC-3, respectively.

B1: 5F12G1: murine monoclonal anti-BKB2R antibody (IgG2b,κ), VH comprising SEQ ID NO:1, VL comprising SEQ ID NO:2 (antibody, listed as Mus musculus, V domains shown)
VH: EVKLEESGGGLVQPGGSMKLSCVVSGFTFSDYWMSWVRHSPEMGLEWVAEIRLKSDNYATHYAESVKGRFTISRDDSKSRLYLQINSLRGEDTGIYYCTRDYYAMEYWGQGTSVTVSS
VL: DVVMTQTPLSLPVSLGDQASISCRSSQTIVHSNGKTYLEWYLQKPGQSPKLLIYKVSNRFSGVPDRFSGSGSGTEFTLKISRVETEDLGVYYCFQASHVPYTFGGGTKLEIK
For B1, the “increase of fasting blood glucose from baseline” value in experiment [1] (0.2 mg/kg s.c. every 3 days, Day 0 to Day 21) worked out at 33.1 ± 19.7 mg/dL. Moreover, the “fasting blood glucose level” value in experiment [1] (0.2 mg/kg s.c. every 3 days, baseline 117.6+/−14.2 (5F12G1), 116.5+/−25.8 (MG2b-57)) was “approximately 150.8+/−56.5 mg/dl”; in experiment [1] (second of three values given respectively (0.04 mg/kg s.c. every 3 days)), about 163 ± 21 mg/dL; in experiment [1] (third of three values given respectively (0.008 mg/kg s.c. every 3 days)) it was about 190 ± 40 mg/dL. The “EC 50 Values (ng/ml) BxPC-3” value in experiment [2] is 23000 ng/mL.
